Biological target: T1, CD-86, P42081
T1 chain: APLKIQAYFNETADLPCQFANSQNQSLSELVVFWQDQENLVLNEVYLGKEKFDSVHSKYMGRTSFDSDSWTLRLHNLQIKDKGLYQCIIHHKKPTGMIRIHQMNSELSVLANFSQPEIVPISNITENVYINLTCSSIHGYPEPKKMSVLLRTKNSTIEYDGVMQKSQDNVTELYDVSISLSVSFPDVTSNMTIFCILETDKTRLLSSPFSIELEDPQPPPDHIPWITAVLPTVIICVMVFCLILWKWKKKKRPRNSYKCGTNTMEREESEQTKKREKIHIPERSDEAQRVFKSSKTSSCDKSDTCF
Assay: fluorescence correlation spectroscopy with photon counting histogram
Conditions: remark: other sources report otherwise

- PCH molecular brightness: 9360 CPSM
B1: CD-86, P42081 24-329 (receptor)
chain: APLKIQAYFNETADLPCQFANSQNQSLSELVVFWQDQENLVLNEVYLGKEKFDSVHSKYMGRTSFDSDSWTLRLHNLQIKDKGLYQCIIHHKKPTGMIRIHQMNSELSVLANFSQPEIVPISNITENVYINLTCSSIHGYPEPKKMSVLLRTKNSTIEYDGVMQKSQDNVTELYDVSISLSVSFPDVTSNMTIFCILETDKTRLLSSPFSIELEDPQPPPDHIPWITAVLPTVIICVMVFCLILWKWKKKKRPRNSYKCGTNTMEREESEQTKKREKIHIPERSDEAQRVFKSSKTSSCDKSDTCF
